Three sequences from the Immune Epitope Database (IEDB) can be followed below.

One experiment deals with HLA-A*29:02. The experiment can be described thus: IEDB peptide-MHC binding, purified MHC/direct/fluorescence; filed as Kd, often an IC50 or EC50 that approximates it; ≥ and ≤ were set here for values at or beyond the usual limits of such assays. The settings on record: source organism: Brucella suis 1330.
For a further experiment, the target named is HLA-B*51:01. The experiment is described as above. The settings on record: source organism: Brucella suis 1330.
Experiment [1] concerns the target HLA-B*15:01. Described as above. Particulars: source organism: Brucella suis 1330.
For another experiment, the target named is HLA-A*03:01. Described as above. Particulars: source organism: Brucella suis 1330.
The target in the next experiment is HLA-B*46:01. The description is as above. The settings on record: source organism: Brucella suis 1330.
The target of another experiment is HLA-B*18:01. Described as above. The settings on record: source organism: Brucella suis 1330.
The target in experiment [2] is HLA-A*66:01. The experiment is described as above. The settings on record: source organism: Brucella suis 1330.
In another experiment the target is HLA-A*68:02. Described as above. The settings on record: source organism: Brucella suis 1330.
For the next experiment, the target named is HLA-B*27:03. The description is as above. Particulars: source organism: Brucella suis 1330.
In a further experiment the target is HLA-B*57:01. Described as above. The settings on record: source organism: Brucella suis 1330.
In another experiment the target is HLA-B*40:01. The experiment in a line: IEDB peptide-MHC binding, purified MHC/competitive/fluorescence; filed as Kd, often an IC50 or EC50 that approximates it; ≥ and ≤ were set here for values at or beyond the usual limits of such assays.
The target in experiment [3] is HLA-B*58:01. The experiment is described as above.
Another experiment concerns the target HLA-B*15:42. Described as above. Particulars: source organism: Brucella canis ATCC 23365.
In experiment [4] the target is HLA-A*30:02. The experiment is described as above.
For the next experiment, the target named is HLA-B*83:01. The experiment is described as above. The settings on record: source organism: Brucella canis ATCC 23365.
The target in the next experiment is HLA-B*08:01. Described as above.
The target in the next experiment is HLA-B*53:01. The experiment is described as above.
A further experiment deals with HLA-B*45:06. The description is as above. Particulars: source organism: Brucella canis ATCC 23365.
The target of another experiment is HLA-A*11:01. The experiment is described as above.
The next experiment has as its target HLA-A*68:23. The description is as above. Particulars: source organism: Brucella canis ATCC 23365.
Another experiment concerns the target HLA-B*14:02. Described as above.
The target of the next experiment is HLA-B*39:01. Described as above. The settings on record: source organism: Brucella canis ATCC 23365.
The next experiment addresses HLA-B*44:02. Described as above.
The next experiment concerns the target HLA-A*01:01. The description is as above.
The target in another experiment is HLA-A*30:01. Described as above.
In the next experiment the target is HLA-A*23:01. Described as above.
Another experiment concerns the target HLA-B*07:02. The description is as above.
The target in a further experiment is HLA-A*24:03. The experiment is described as above. The settings on record: source organism: Brucella canis ATCC 23365.
The next experiment deals with HLA-A*80:01. The experiment in a line: IEDB peptide-MHC binding, purified MHC/direct/fluorescence; filed as Kd, often an IC50 or EC50 that approximates it; ≥ and ≤ were set here for values at or beyond the usual limits of such assays. The settings on record: source organism: Dengue virus 1 Singapore/S275/1990.
For experiment [5], the target named is HLA-B*58:01. The experiment in a line: IEDB peptide-MHC binding, purified MHC/competitive/radioactivity; filed as Kd, often an IC50 or EC50 that approximates it; ≥ and ≤ were set here for values at or beyond the usual limits of such assays. The settings on record: source organism: Dengue virus 1 Brazil/97-11/1997.
The target of experiment [6] is HLA-A*30:02. The description is as above. The settings on record: source organism: Dengue virus 1 Brazil/97-11/1997.
The next experiment addresses HLA-B*27:05. The experiment in a line: IEDB peptide-MHC binding, purified MHC/competitive/fluorescence; filed as Kd, often an IC50 or EC50 that approximates it; ≥ and ≤ were set here for values at or beyond the usual limits of such assays. Particulars: source organism: Escherichia coli 536.
For experiment [7], the target named is HLA-B*15:01. The description is as above. The settings on record: source organism: Escherichia coli 536.
Experiment [8] addresses HLA-A*66:01. Described as above. Particulars: source organism: Escherichia coli 536.
The mark [9] stands for this setting: source organism: Brucella canis ATCC 23365.
Setting [10] is: source organism: Escherichia coli 536.

Take ETVWPFFYA: the Kd with HLA-A*29:02, with HLA-B*51:01, with HLA-B*15:01 [1], in the experiment with HLA-A*03:01, in the experiment with HLA-B*46:01 and with HLA-B*18:01 was ≥ 20 µM in each case. For the same sequence, the Kd (in general, the constant that tells how readily two partners part at equilibrium) was 0.101 µM with HLA-A*66:01 [2]; ≤ 0.001 µM in the experiment with HLA-A*68:02; ≥ 20 µM with HLA-B*27:03; ≥ 20 µM with HLA-B*57:01; ≥ 5 µM with HLA-B*40:01 (setting [9]); ≥ 5 µM in the experiment with HLA-B*58:01 [3] (setting [9]). The Kd with HLA-B*15:42, in the experiment with HLA-A*30:02 [4] (setting [9]), with HLA-B*83:01, with HLA-B*08:01 (setting [9]), with HLA-B*53:01 (setting [9]) and with HLA-B*45:06 was ≥ 5 µM in each case. Moreover, the Kd is ≥ 5 µM with HLA-A*11:01 (setting [9]); 0.0013 µM with HLA-A*68:23; ≥ 5 µM with HLA-B*14:02 (setting [9]); ≥ 5 µM with HLA-B*39:01; ≥ 5 µM with HLA-B*44:02 (setting [9]); ≥ 5 µM with HLA-A*01:01 (setting [9]). For the same sequence, the Kd in the experiment with HLA-A*30:01 (setting [9]), with HLA-A*23:01 (setting [9]), with HLA-B*07:02 (setting [9]) and with HLA-A*24:03 was ≥ 5 µM each time.

As to KSAAIDGEY, the values for the Kd with HLA-A*80:01, in the experiment with HLA-B*58:01 [5] and with HLA-A*30:02 [6] were 0.0441 µM, 0.00658 µM and 0.703 µM, respectively.

YQAENSTAE: the equilibrium dissociation constant (Kd) with HLA-B*27:05, with HLA-B*40:01 (setting [10]), in the experiment with HLA-B*58:01 [3] (setting [10]), with HLA-A*30:02 [4] (setting [10]), in the experiment with HLA-B*08:01 (setting [10]) and with HLA-B*53:01 (setting [10]) was ≥ 5 µM in each case. The Kd in the experiment with HLA-B*15:01 [7], with HLA-A*11:01 (setting [10]), with HLA-B*14:02 (setting [10]), in the experiment with HLA-A*66:01 [8], with HLA-B*44:02 (setting [10]) and with HLA-A*01:01 (setting [10]) was ≥ 5 µM each time. Besides, the Kd with HLA-A*30:01 (setting [10]), with HLA-A*23:01 (setting [10]) and with HLA-B*07:02 (setting [10]) was ≥ 5 µM throughout.
